The text below walks through data of publication PMC10572825 (2023).

This assay concerns the target Tenascin-C (Mus musculus, UniProt Q80YX1, FITC-labelled tenascin-C). The experiment in a line: isothermal fluorescence titration.

B1: CCL26 (protein)
chain: TRGSDISKTCCFQYSHKPLPWTWVRSYEFTSNSCSQRAVIFTTKRGKKVCTHPRKKWVQKYISLLKTPKQL
Molecule B1 returned a Kd of 270 nM.

A word on the Kd: it is the equilibrium constant for the complex coming apart.
